# Data from US10653613B2, “Compositions comprising lysozyme hydrolysate for use in keratin-containing tissue” (DSM IP ASSETS B.V., priority 2013, dated 2020).
# What was measured:
# [1] = human, in vivo
# Experimental: (§1) Lysozyme is rich in Trp. […] A product data sheet is attached as FIG. 6. Study Procedures
# (§2) Washout periods between treatments were at least three days. […] The study was composed of four visits.
# (§3) They then ingested one of the experimental drinks.
# (§4) Fluorescence-based detection is employed.
# (§5) • For Trp and LNAA determination in the blood: Approx. […] After mixing, 2 μl was injected on the column. Statistical Considerations Descriptive Statistics
# [2] = Clinical trial: plasma Trp/LNAA ratio kinetics after a single drink; assay type: in vivo, humans
# Experimental: as §1, §2, §3, §4, §5
# Plasma samples from each time point have been analysed for levels of Trp and LNAA, i.e. the sum of Val, Ile, Leu, Tyr, and Phe. The resulting Trp/LNAA ratio was plotted against time post consumption of the intervention product.
substance,measurement,setting,value
intact lysozyme: A hen egg-derived protein rich in Trp; naturally occurring food protein that has not been altered,Cysteine AUC (average),[1],999.7
same,Cystine AUC (average),[1],10726.7
same,Glutathione AUC (average),[1],255.7
same,Shape of the plasma Trp/LNAA ratio increase over time (in words),"[2]; FIG. 2, comparison of the three treatments",much slower increase
same,"dAUC (baseline-corrected AUC of Trp/LNAA ratios), mean","[2]; plasma, 0-240 min after single drink, healthy volunteers, baseline AUC subtracted",7.3
